We go through one molecule from patent US20210171647A1 (WUXI BIOLOGICS SHANGHAI, published 2021).

Experiment in all cases: ELISA, antibody coated, OX40-ECD.His mutant supernatant; relative to silent alanine substitutions;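 also: captured OX40 mutant protein detected with HRP-labelled anti-His antibody, absorbance read-out, scaled to the mean signal of control mutants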
(An ELISA detects its analyte on a solid surface through an enzyme-linked reagent.)

One experiment addresses T1, human OX40-ECD.His A101G (human, UniProt P43489 29-214).
T1 construct: extracellular domain; not shown: C-terminal His-tag
T1 sequence (looked up): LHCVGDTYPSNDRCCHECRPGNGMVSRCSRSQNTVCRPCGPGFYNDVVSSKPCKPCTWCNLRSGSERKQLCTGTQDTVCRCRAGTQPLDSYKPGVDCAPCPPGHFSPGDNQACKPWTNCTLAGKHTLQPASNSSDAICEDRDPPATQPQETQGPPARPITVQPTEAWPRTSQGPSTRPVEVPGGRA

For another experiment, the target named is T2, human OX40-ECD.His D168A (human, UniProt P43489 29-214).
T2 construct: extracellular domain; not shown: C-terminal His-tag
T2 sequence (looked up): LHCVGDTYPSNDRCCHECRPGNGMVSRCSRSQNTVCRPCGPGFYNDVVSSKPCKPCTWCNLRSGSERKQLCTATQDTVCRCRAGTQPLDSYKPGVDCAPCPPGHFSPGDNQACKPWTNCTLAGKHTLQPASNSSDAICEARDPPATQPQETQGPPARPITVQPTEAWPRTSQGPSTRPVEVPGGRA

Another experiment has as its target T3, human OX40-ECD.His Y72A (human, UniProt P43489 29-214).
T3 construct: extracellular domain; not shown: C-terminal His-tag
T3 sequence (looked up): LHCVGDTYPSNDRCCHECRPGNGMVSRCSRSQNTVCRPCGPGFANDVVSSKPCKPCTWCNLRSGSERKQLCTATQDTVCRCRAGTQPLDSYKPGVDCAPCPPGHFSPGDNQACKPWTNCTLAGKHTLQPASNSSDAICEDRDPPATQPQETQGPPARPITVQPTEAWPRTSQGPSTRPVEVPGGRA

The next experiment deals with T4, human OX40-ECD.His P83A (human, UniProt P43489 29-214).
T4 construct: extracellular domain; not shown: C-terminal His-tag
T4 sequence (looked up): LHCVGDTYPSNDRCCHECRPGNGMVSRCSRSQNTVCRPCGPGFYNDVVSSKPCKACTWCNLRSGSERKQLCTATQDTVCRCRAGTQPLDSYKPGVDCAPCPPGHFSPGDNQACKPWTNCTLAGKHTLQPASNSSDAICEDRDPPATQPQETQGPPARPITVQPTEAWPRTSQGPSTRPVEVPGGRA

A further experiment deals with T5, human OX40-ECD.His Y36A (human, UniProt P43489 29-214).
T5 construct: extracellular domain; not shown: C-terminal His-tag
T5 sequence (looked up): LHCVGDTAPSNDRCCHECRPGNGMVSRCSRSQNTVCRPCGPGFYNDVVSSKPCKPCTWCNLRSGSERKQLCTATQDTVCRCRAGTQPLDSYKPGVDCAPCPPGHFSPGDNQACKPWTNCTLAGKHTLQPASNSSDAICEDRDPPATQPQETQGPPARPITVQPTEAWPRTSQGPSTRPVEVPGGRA

The target of the next experiment is T6, human OX40-ECD.His T154A (human, UniProt P43489 29-214).
T6 construct: extracellular domain; not shown: C-terminal His-tag
T6 sequence (looked up): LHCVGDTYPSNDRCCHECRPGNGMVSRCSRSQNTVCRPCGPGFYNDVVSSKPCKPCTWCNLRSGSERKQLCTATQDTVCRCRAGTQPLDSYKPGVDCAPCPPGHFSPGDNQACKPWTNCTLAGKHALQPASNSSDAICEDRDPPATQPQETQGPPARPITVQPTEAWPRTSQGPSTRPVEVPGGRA

For a further experiment, the target named is T7, human OX40-ECD.His F71A (human, UniProt P43489 29-214).
T7 construct: extracellular domain; not shown: C-terminal His-tag
T7 sequence (looked up): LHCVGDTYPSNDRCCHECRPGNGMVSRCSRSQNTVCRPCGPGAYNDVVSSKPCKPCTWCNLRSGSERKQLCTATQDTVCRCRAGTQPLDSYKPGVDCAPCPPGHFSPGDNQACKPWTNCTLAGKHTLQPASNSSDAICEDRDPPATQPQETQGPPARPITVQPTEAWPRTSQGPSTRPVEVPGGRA

The target in another experiment is T8, human OX40-ECD.His T62A (human, UniProt P43489 29-214).
T8 construct: extracellular domain; not shown: C-terminal His-tag
T8 sequence (looked up): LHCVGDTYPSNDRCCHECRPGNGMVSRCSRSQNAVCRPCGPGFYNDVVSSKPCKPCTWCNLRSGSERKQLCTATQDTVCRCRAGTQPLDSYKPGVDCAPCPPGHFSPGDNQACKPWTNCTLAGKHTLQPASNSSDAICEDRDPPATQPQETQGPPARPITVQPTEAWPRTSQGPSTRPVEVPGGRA

The target of another experiment is T9, human OX40-ECD.His G92A (human, UniProt P43489 29-214).
T9 construct: extracellular domain; not shown: C-terminal His-tag
T9 sequence (looked up): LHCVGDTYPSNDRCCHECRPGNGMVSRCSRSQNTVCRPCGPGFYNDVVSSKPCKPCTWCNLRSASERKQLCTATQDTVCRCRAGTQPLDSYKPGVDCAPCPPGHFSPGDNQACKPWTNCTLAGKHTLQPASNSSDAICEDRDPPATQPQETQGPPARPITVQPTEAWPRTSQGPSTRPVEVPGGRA

For a further experiment, the target named is T10, human OX40-ECD.His P129A (human, UniProt P43489 29-214).
T10 construct: extracellular domain; not shown: C-terminal His-tag
T10 sequence (looked up): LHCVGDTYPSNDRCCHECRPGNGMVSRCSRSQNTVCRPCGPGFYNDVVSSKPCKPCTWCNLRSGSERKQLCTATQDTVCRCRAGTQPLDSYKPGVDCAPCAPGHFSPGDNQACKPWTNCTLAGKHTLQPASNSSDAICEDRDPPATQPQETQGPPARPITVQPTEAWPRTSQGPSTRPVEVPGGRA

Experimental for human OX40-ECD.His A101G: (§1) After interacting with the supernatant that contains quantified OX40 mutants or human OX40-ECD.His protein, HRP conjugated anti-His antibody (1:5000, GenScript-A00612, CHN) was added as detection antibody. Absorbance was normalized according to the average of control mutants.
Experimental for human OX40-ECD.His D168A: as §1
Experimental for human OX40-ECD.His F71A: as §1
Experimental for human OX40-ECD.His G92A: as §1
Experimental for human OX40-ECD.His P129A: as §1
Experimental for human OX40-ECD.His P83A: as §1
Experimental for human OX40-ECD.His T154A: as §1
Experimental for human OX40-ECD.His T62A: as §1
Experimental for human OX40-ECD.His Y36A: as §1
Experimental for human OX40-ECD.His Y72A: as §1

B1: 1.134.9-u1-IgG1L (antibody, V domains shown)
VH: QVQLQESGPGLVKPSGTLSLTCAVSGGSISSYNWWSWVRQPPGKGLEWIGEIYHGGNTNYNPSLKSRVTMSVDNSKNQFSLKLSSVTAADTAVYYCARAPGDWGGSPYFDFWGQGTLVTVSS
VL: SSELTQDPAVSVALGQTVRITCQGDNLRTYYASWYQQKPGQAPILLIYGRNKRPSGIPDRFSGSSSGNTASLTITGAQAEDEAAYYCNSRDSSGNPVVFGGGTKLTVL
notes: fully human IgG1, lambda
On to B1, for which the “Fold Change” value came to 0.881 with human OX40-ECD.His A101G; 0.983 in the experiment with human OX40-ECD.His D168A; 0.384 with human OX40-ECD.His Y72A; 0.918 in the experiment with human OX40-ECD.His P83A; 1 in the experiment with human OX40-ECD.His Y36A; 0.843 with human OX40-ECD.His T154A. The “Fold Change” value with human OX40-ECD.His F71A is 0.866; in the experiment with human OX40-ECD.His T62A, 0.923; with human OX40-ECD.His G92A, 0.233; with human OX40-ECD.His P129A, 0.907.
